# Results: the supplement of paper PMC9170038
# Test system: MS2 coat protein
# Assay: apparent KD of MS2 coat protein; designed switch direction (-1 OFF switch, 1 ON switch): -1; higher = weaker reporter binding
# Outline: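 For each design, the apparent KD is the median over clusters of curves fitted to normalised cluster fluorescence. Clusters held RNA switches with common flanks, transcribed on Illumina chips by stalled E. coli RNA polymerase. These were titrated with SNAP-549-labelled MS2 coat protein, doubling from 0.7 or 1.5 nM to 3 µM, without input, with 200 uM small-molecule ligand, or with an oligonucleotide input.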
# [1] = Eterna round: R95, input ligand: FMN 200 uM
# [2] = Eterna round: R95, input ligand: microRNA oligo, concentration not stated
# [3] = Eterna round: R95, input ligand: none
# [4] = input ligand: microRNA oligo, concentration not stated
sequence,measurement,setting,value
"AUACCAUGCCGCCUAAUAGCUUUUUGCUCGUCUUAUAAAACAUGAGGAUCACCCAUGUAAAACUCGUGGCGUGACCC [Leorbixe] (puzzle: Sensor v3, turn-off variant 2)",apparent KD of MS2 coat protein,[1],77 nM
same,apparent KD of MS2 coat protein,[2],19.9 nM
same,apparent KD of MS2 coat protein,[3],60.8 nM
"AUACGUGAGAAGGAUAUCACACGCCAGAGGCGUUGAGAAGGUUUCACAUGAGGAUCACCCAUGUGCUCUUCCAG [Orlaa] (Eterna round: R97, puzzle: Exclusion 6)",apparent KD of MS2 coat protein,input ligand: FMN 200 uM,61.3 nM
same,apparent KD of MS2 coat protein,input ligand: none,23.5 nM
"AUAUACGGGCAGGAUAUGCGAGCCAGAAAGCACGCAGAAGGGCUAACAUGAGGAUCACCCAUGUGAGCAACUCG [Eternabot (Original) Solution 9] (Eterna round: R97, puzzle: Exclusion 6)",apparent KD of MS2 coat protein,input ligand: FMN 200 uM,18.1 nM
same,apparent KD of MS2 coat protein,input ligand: none,14.9 nM
AUAUCAAGCAAGGAUAUGCAAAUGGUUAUUUAUGCAGAAGGUGCGACAUGAGGAUCACCCAUGUUUCUGGGUUU [JR_E6_Sub050] (puzzle: Exclusion 6),apparent KD of MS2 coat protein,[2],68.2 nM
"AUAUCACAUGAGGAUCACCCAUGUCAGGAUAUGAUACUAUGUACUUCGGUACAUAGUAUCAGAAGGGAUAUGAA [Ex1-3: 66] (Eterna round: R96, puzzle: Exclusion 1)",apparent KD of MS2 coat protein,input ligand: FMN 200 uM,83.3 nM
same,apparent KD of MS2 coat protein,[4],29.2 nM
same,apparent KD of MS2 coat protein,input ligand: none,40.3 nM
AUAUCACAUGAGGAUCACCCAUGUCAGGAUAUGAUACUAUGUACUUCGGUACAUAGUAUCAGAAGGGAUAUGAA [Ex1-3: 66] (puzzle: Exclusion 1),apparent KD of MS2 coat protein,[2],45.4 nM
AUAUCCCGAGGAUAUACAUGAGGAUCACCCAUGUCGGGCCUCUGGCCUAAGGCCGAAAGUAGAAGGUGGGUUUC [JL Riri mod 11] (puzzle: Exclusion 3),apparent KD of MS2 coat protein,[2],126 nM
"AUAUGUGCGAGAGGAUAUCGUGUACAAAGUACACGAGAAGGCUUCACAUGAGGAUCACCCAUGUACCGAGGUGAAACACCUUGA [Omei Exc(NG)1 Bv5] (Eterna round: R96, puzzle: Exclusion NG 1)",apparent KD of MS2 coat protein,input ligand: FMN 200 uM,357 nM
same,apparent KD of MS2 coat protein,[4],156 nM
same,apparent KD of MS2 coat protein,input ligand: none,234 nM
"AUAUUAAUAGUAAGGAUAUGCGUAUAUAUAAUUAUGCAGAAGGUACAUGAGGAUCACCCAUGUAUUAAUGUAUA [LRO-BmodExc4-01-Oppy's Opus] (Eterna round: R97, puzzle: Brourd's mod of Exclusion 4)",apparent KD of MS2 coat protein,input ligand: FMN 200 uM,16.5 nM
same,apparent KD of MS2 coat protein,input ligand: none,15.6 nM
"AUAUUACAUGAGGAUCACCCAUGUGAGGAUAUGGAGCGAGACUGUCCUGUCGCGUACACCAGAAGGCGCGGGCG [1st #53] (Eterna round: R97, puzzle: Exclusion 1)",apparent KD of MS2 coat protein,input ligand: FMN 200 uM,27.5 nM
same,apparent KD of MS2 coat protein,input ligand: none,31 nM
"AUAUUACAUGAGGAUCACCCAUGUGAGGAUAUGGAGCGCGACCGCCCGGUCGCGUACACCAGAAGGCGCGGGCG [1st #57] (Eterna round: R97, puzzle: Exclusion 1)",apparent KD of MS2 coat protein,input ligand: FMN 200 uM,46.2 nM
same,apparent KD of MS2 coat protein,input ligand: none,22.3 nM
"AUCAGCUCGUCAGGAUAUACAUGAGGAUCACCCAUGUGGUCAUUAGCAGCUUCGGCUGCAUUAAUGUAGAAGGGACGAGCUGAU [ENG2/8-B2] (Eterna round: R96, puzzle: Exclusion NG 2)",apparent KD of MS2 coat protein,input ligand: FMN 200 uM,544 nM
same,apparent KD of MS2 coat protein,[4],522 nM
same,apparent KD of MS2 coat protein,input ligand: none,502 nM
"AUCAGCUCGUGAGGAUAUGAACAUGAGGAUCACCCAUGUAAGAUCAAGCUGCUUCGGCAGCAAGUUCAGAAGGUACGAGCUGAU [ENG2/10-C3] (Eterna round: R96, puzzle: Exclusion NG 2)",apparent KD of MS2 coat protein,input ligand: FMN 200 uM,197 nM
same,apparent KD of MS2 coat protein,[4],78.1 nM
same,apparent KD of MS2 coat protein,input ligand: none,139 nM
AUCAUGUGAGGAUAUGUGAUCAACCUUCUGUAUAGAUGAUUACAGAAGGCACAUGAGGAUCACCCAUGUAGAUC [Ex4 - 3 - 21] (puzzle: Exclusion 4),apparent KD of MS2 coat protein,[2],55.7 nM
"AUCCUUAACAAGGAUAUCGGGCGGGAAAUUGUUUGAGAAGGUGUAACAUGAGGAUCACCCAUGUUAAACGUGGA [-18.8, -18.6 kcal, A 32%] (Eterna round: R97, puzzle: Exclusion 6)",apparent KD of MS2 coat protein,input ligand: FMN 200 uM,22.3 nM
same,apparent KD of MS2 coat protein,input ligand: none,23.4 nM
AUCGUGAAGAAGGAUAUGGGCCCGGUAAUACGACUAGAAGGUCUGACAUGAGGAUCACCCAUGUGAUACCAAAA [Arorquis] (puzzle: Exclusion 6),apparent KD of MS2 coat protein,[1],32.2 nM
same,apparent KD of MS2 coat protein,[2],33.3 nM
same,apparent KD of MS2 coat protein,[3],32.5 nM
"AUCGUGCAGCAAAGCUGUACGAGUACAUGAGGAUCACCCAUGUAGGAUAUGGUACGCUUUGCGUGCUAGAAGGAUAUGUGUAGG [Mat - Exclusion NG 3 - Mod of JL - D83] (Eterna round: R96, puzzle: Exclusion NG 3)",apparent KD of MS2 coat protein,input ligand: FMN 200 uM,35.7 nM
same,apparent KD of MS2 coat protein,[4],31 nM
same,apparent KD of MS2 coat protein,input ligand: none,35.7 nM
"AUCGUGCAGCUUUGCUGUACGAGUACAUGAGGAUCACCCAUGUAGGAUAUGGUACGCAAAGCGUGCUAGAAGGAUAUGAGAUGU [Mat - Exclusion NG 3 - Mod of JL - D98] (Eterna round: R96, puzzle: Exclusion NG 3)",apparent KD of MS2 coat protein,input ligand: FMN 200 uM,30.4 nM
same,apparent KD of MS2 coat protein,[4],25.2 nM
same,apparent KD of MS2 coat protein,input ligand: none,31.6 nM
"AUCGUGUGAGGAUAUCGAUUAUGGAGGUCUAGGUCCAUACGCGAGAAGGCACAUGAGGAUCACCCAUGUAAUGG [jl-ex4-4.31 ViennaUCT mod] (Eterna round: R97, puzzle: Exclusion 4)",apparent KD of MS2 coat protein,input ligand: FMN 200 uM,126 nM
same,apparent KD of MS2 coat protein,input ligand: none,309 nM
"AUGGGUCCUCACGGAGCUACAUGAGGAUCACCCAUGUGGAUUGAGGAUAUCGUAACCCGACGGGACGAGAAGGCAGUUUACUGU [Ex NG3 #98] (Eterna round: R96, puzzle: Exclusion NG 3)",apparent KD of MS2 coat protein,input ligand: FMN 200 uM,63.1 nM
same,apparent KD of MS2 coat protein,[4],23 nM
same,apparent KD of MS2 coat protein,input ligand: none,29.4 nM
"AUGGUUCGAUUAGGAUAUUAUAGAUUGAAUAGUAUGAUUUACAUGAGGAUCACCCAUGUUACAUUUAAGAAGGAAUCGAAUCAU [JR_ExcNG2_Sub088] (Eterna round: R96, puzzle: Exclusion NG 2)",apparent KD of MS2 coat protein,input ligand: FMN 200 uM,13.9 nM
same,apparent KD of MS2 coat protein,[4],13.2 nM
same,apparent KD of MS2 coat protein,input ligand: none,21.5 nM
"AUGUAAGCGGAGGAUAUCUGGUGGAUACAGAUGGGAGAAGGUCGCACAUGAGGAUCACCCAUGUCGCAGAGAUG [Eternabot (L2) Solution 83] (Eterna round: R97, puzzle: Exclusion 6)",apparent KD of MS2 coat protein,input ligand: FMN 200 uM,44.1 nM
same,apparent KD of MS2 coat protein,input ligand: none,55.3 nM
"AUGUGACAUGAGGAUCACCCAUGUGAGGAUAUCAUGCUUCGUAGUAAACUACGAAGUGUGAGAAGGCACAUAAC [Omei Ex1 E7] (Eterna round: R97, puzzle: Exclusion 1)",apparent KD of MS2 coat protein,input ligand: FMN 200 uM,357 nM
same,apparent KD of MS2 coat protein,input ligand: none,80.2 nM
"AUUAAACAUGUAGGAUAUGCGUAGCAAAGCUAUGCAGAAGGACAUGAGGAUCACCCAUGUAAAAGCGUCUGAGUACAGAUGCAA [Mat - Exclusion NG 1 - Mod of JL - D88] (Eterna round: R96, puzzle: Exclusion NG 1)",apparent KD of MS2 coat protein,input ligand: FMN 200 uM,936 nM
same,apparent KD of MS2 coat protein,[4],40.5 nM
same,apparent KD of MS2 coat protein,input ligand: none,47.6 nM
"AUUAACAUGUUGAUCAAAUACAUGAGGAUCACCCAUGUAUGCUUUUUGCUCGAUAAGAUCAACUAAUUAAUUAAUUA [StovNew/1-B] (Eterna round: R97, puzzle: Sensor, turn-off variant 1)",apparent KD of MS2 coat protein,input ligand: FMN 200 uM,13.9 nM
same,apparent KD of MS2 coat protein,input ligand: none,12.6 nM
"AUUAAUUGUCAGAUGGGUGACAUGAGGAUCACCCAUGUCACAAGCUUUUUGUUCGUCUUAUAAUUAACCCAUCUGAC [Stov1/11-B2] (Eterna round: R97, puzzle: Sensor, turn-off variant 1)",apparent KD of MS2 coat protein,input ligand: FMN 200 uM,13.8 nM
same,apparent KD of MS2 coat protein,input ligand: none,14.4 nM
"AUUACGUCAGGAUAUGCGUGUUAGACAUGUUUAACCUAAGAACAUGAGGAUCACCCAUGUAGAAGGGACGCUCA [Eternabot (L1) Solution 78] (Eterna round: R97, puzzle: Exclusion 2)",apparent KD of MS2 coat protein,input ligand: FMN 200 uM,68.9 nM
same,apparent KD of MS2 coat protein,input ligand: none,64.9 nM
"AUUAUAUAGACAGGAUAUAGAAUAUUAUUUUAACAUGAGGAUCACCCAUGUAACCUUAUGUGUAGCUAGAAGGGUCAUUUAUUA [Title] (Eterna round: R96, puzzle: Exclusion NG 2)",apparent KD of MS2 coat protein,[4],77.4 nM
"AUUAUAUAGAUAGGAUAUAGAAUAUUAUUUUAACAUGAGGAUCACCCAUGUAACCUUAUGUGUAGCUAGAAGGAUCAUUUAUUA [Title] (Eterna round: R96, puzzle: Exclusion NG 2)",apparent KD of MS2 coat protein,[4],69.5 nM
"AUUAUAUAGGAAGGAUAUAGAAUAUUAUUUUAACAUGAGGAUCACCCAUGUAACCUUAUGUGUAGCUAGAAGGUCCAUUUAUUA [Title] (Eterna round: R96, puzzle: Exclusion NG 2)",apparent KD of MS2 coat protein,[4],95.6 nM
AUUAUGUAAGGAUAUCUUACAUGUGACUUCGGUCACUGUUAAGAGAAGGUACAUGAGGAUCACCCAUGUAUAAC [Ex4-3: 48] (puzzle: Exclusion 4),apparent KD of MS2 coat protein,[2],18.8 nM
"AUUGAUAGCACAGGAUAUUGAGAUUUGAAUUGACAAGAAGGGUGUACAUGAGGAUCACCCAUGUAAUGGCUGCCUCGUUGAUUA [JR_ExcNG1_Sub005] (Eterna round: R96, puzzle: Exclusion NG 1)",apparent KD of MS2 coat protein,[4],45.6 nM
"AUUGGGCAAGCAUGAUCCCACAUGAGGAUCACCCAUGUGUUCGUCUUAUAGGCUGCUGAGGCUUUUGCCUCGGUGGC [LRO Sensor-off var1-02 loose mod of D91 from Mat747] (Eterna round: R97, puzzle: Sensor, turn-off variant 1)",apparent KD of MS2 coat protein,input ligand: FMN 200 uM,706 nM
same,apparent KD of MS2 coat protein,input ligand: none,875 nM
"AUUGUUUGAUACCUUUAAUACAUGAGGAUCACCCAUGUUAUCGAGGAUAUGUAGAAGAGAUGAGAACAGAAGGCGAAGUAAGAG [JR_ExcNG3_Sub096] (Eterna round: R96, puzzle: Exclusion NG 3)",apparent KD of MS2 coat protein,input ligand: FMN 200 uM,21.3 nM
same,apparent KD of MS2 coat protein,[4],11.1 nM
same,apparent KD of MS2 coat protein,input ligand: none,16.5 nM
